Source: PMC7949163

T1: Mutual gliding-motility protein B (MglB) (Myxococcus xanthus), Q1DB03
T1 chain: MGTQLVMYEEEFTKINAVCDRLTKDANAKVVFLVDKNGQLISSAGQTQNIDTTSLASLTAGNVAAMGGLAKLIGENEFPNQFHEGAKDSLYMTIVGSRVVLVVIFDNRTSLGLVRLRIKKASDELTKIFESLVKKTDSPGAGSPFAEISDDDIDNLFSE


How the values were obtained:
[1] = biological target: Mutual gliding-motility protein B (MglB) (Myxococcus xanthus) (UniProt Q1DB03); assay: SAXS; SAXSpace line collimation, 20 °C; MglB 25, 15, 10 mg/ml; MglC 35, 15, 20 mg/ml; MglBC and MglB^ΔCTC complexes freshly eluted from SEC
[2] = biological target: Mutual gliding motility protein C (MglC) (Myxococcus xanthus); assay: as above
[3] = biological target: Mutual gliding-motility protein B (MglB) (Myxococcus xanthus) (UniProt Q1DB03); assay: ITC; 25 °C; 50 μM MglB in the cell titrated with 500 μM MglC; one set of sites model; triplicates
[4] = biological target: Mutual gliding-motility protein B (MglB) (Myxococcus xanthus) (UniProt Q1DB03); assay: SEC; analytical SEC, Superdex 200 Increase 10/300, 0.5 ml/min, A280; proteins alone or MglB:MglC mixed 1:1, 2:1 and 1:2; MglB mutants mixed with MglC 2:1
[5] = biological target: Mutual gliding motility protein C (MglC) (Myxococcus xanthus); assay: as above
[6] = biological target: T1, Mutual gliding-motility protein B …; assay: SAXS; SAXSpace line collimation, 20 °C; MglB 25, 15, 10 mg/ml; MglC 35, 15, 20 mg/ml; MglBC and MglB^ΔCTC complexes freshly eluted from SEC; conditions: remark: other sources report otherwise
[7] = biological target: T1, Mutual gliding-motility protein B …; assay: SEC; analytical SEC, Superdex 200 Increase 10/300, 0.5 ml/min, A280; proteins alone or MglB:MglC mixed 1:1, 2:1 and 1:2; MglB mutants mixed with MglC 2:1; conditions: remark: other sources report otherwise

stoichiometry N (MglC per MglB) [1]	stoichiometry N [2]	Kd [3] [nM]	dH [3] [kcal/mol]	stoichiometry N [3]	stoichiometry N (MglC per MglB) [4]	stoichiometry N [5]	stoichiometry N [6]	stoichiometry N [7]	Molecule
0.5	2	417	6.94	0.51	0.5	2	–	–	Mutual gliding motility protein C (MglC) (natural protein)
–	–	–	–	–	–	–	2	2	Mutual gliding-motility protein B (MglB), Q1DB03 1-159 (natural protein) MGTQLVMYEEEFTKINAVCDRLTKDANAKVVFLVDKNGQLISSAGQTQNIDTTSLASLTAGNVAAMGGLAKLIGENEFPNQFHEGAKDSLYMTIVGSRVVLVVIFDNRTSLGLVRLRIKKASDELTKIFESLVKKTDSPGAGSPFAEISDDDIDNLFSE
